{
  "source": "patent US20070185028A1",
  "about": "(published 2007)",
  "key": {"Human γD crystallin [1]": {"target": "T1, Human γD crystallin (human, UniProt P07320 2-174, limits assumed)", "T1 construct": "Used unheated (23° C) and pre-heated (45° C, 15 min)", "T1 sequence (looked up)": "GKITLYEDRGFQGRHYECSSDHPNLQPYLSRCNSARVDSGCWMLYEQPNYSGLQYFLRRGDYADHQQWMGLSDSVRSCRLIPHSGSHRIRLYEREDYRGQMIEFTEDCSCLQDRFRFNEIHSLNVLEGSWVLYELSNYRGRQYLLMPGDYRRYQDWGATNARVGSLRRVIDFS", "assay": "protein pin array ELISA, A450; listed as peak peptide with unheated and pre-heated target"}, "Bovine βH crystallin": {"target": "Bovine βH crystallin (bovine)", "assay": "cell-based or functional assay"}, "[2]": {"target": "Equine Alcohol dehydrogenase (equine, UniProt P00327 2-375)", "sequence (P00327 2-375 limits assumed)": "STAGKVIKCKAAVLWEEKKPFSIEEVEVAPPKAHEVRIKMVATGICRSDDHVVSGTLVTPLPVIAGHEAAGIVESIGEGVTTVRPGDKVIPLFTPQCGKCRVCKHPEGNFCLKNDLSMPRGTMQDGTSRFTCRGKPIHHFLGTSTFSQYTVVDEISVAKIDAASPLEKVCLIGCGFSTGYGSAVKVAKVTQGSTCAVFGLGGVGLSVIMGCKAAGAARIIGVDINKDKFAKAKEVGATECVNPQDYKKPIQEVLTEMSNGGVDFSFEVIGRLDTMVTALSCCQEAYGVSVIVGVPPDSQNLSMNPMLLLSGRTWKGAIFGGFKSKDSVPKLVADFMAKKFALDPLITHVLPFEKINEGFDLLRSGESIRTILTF", "assay": "cell-based or functional assay"}, "Amyloid-beta (1-42)": {"target": "Amyloid-beta (1-42) (UniProt P05067)", "assay": "cell-based or functional assay"}, "beta amyloid": {"target": "beta amyloid (UniProt P05067 672-713, limits assumed)", "assay": "cell-based or functional assay"}, "Human γD crystallin [3]": {"target": "T1, Human γD crystallin", "assay": "cell-based or functional assay"}, "β2-microglobulin": {"target": "β2-microglobulin (UniProt P61769 21-119)", "sequence (P61769 21-119 limits assumed)": "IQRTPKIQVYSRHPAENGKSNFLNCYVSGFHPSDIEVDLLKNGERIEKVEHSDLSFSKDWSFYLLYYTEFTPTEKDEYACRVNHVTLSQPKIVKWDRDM", "assay": "cell-based or functional assay"}, "transthyretin": {"target": "transthyretin (UniProt P02766 21-147)", "assay": "cell-based or functional assay"}, "Porcine Citrate synthase [4]": {"target": "T2, Porcine Citrate synthase (porcine, UniProt P00889 28-464)", "T2 construct": "also called CS", "T2 sequence (looked up)": "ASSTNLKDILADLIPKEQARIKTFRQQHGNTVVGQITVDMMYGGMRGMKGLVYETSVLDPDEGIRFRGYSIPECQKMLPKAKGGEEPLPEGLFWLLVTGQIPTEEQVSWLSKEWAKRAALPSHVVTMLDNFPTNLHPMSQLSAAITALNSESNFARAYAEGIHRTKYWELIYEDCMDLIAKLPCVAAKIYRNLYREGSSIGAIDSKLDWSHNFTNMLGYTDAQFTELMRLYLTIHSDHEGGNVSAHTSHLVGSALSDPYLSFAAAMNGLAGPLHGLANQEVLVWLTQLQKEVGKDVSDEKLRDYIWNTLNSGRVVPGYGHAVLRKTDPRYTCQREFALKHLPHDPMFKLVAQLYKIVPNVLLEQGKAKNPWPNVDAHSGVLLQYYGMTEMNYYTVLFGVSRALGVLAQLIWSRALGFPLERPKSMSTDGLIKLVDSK", "assay": "protein pin array ELISA, A450; listed as peak peptide with unheated and pre-heated target"}, "Porcine Citrate synthase [5]": {"target": "T2, Porcine Citrate synthase", "assay": "protein pin array"}},
  "note": "No end group written: not given here.",
  "data": [
    {"binder": "EFHRKYRI (pin-immobilised 8-mer of human αB crystallin)", "values": [
      {"measurement": "binding result", "setting": "Human γD crystallin [1]", "result": "binds"}
    ]},
    {"binder": "DRFSVNLDVKHFS", "values": [
      {"measurement": "protection against thermal aggregation at 50° C, light scattering 340 nm, 50:1 peptide:target", "setting": "Bovine βH crystallin", "result": "~30", "unit": "% protection"},
      {"measurement": "protection against thermal aggregation at 50° C, light scattering 340 nm, 50:1 peptide:target", "setting": "[2]", "result": "~30", "unit": "% protection"},
      {"measurement": "pH induced aggregation of amyloid-beta at pH 5.2, light scattering 360 nm (amyloid-beta alone = 100%)", "setting": "Amyloid-beta (1-42)", "result": 4, "unit": "% aggregation"},
      {"measurement": "Δfluorescence (Aβ), Thioflavin T, 72 h at 50° C (no chaperone: 1,324,974,048)", "setting": "beta amyloid", "result": "2.64e+08"},
      {"measurement": "Δfluorescence (γD crystallin), Thioflavin T, 72 h at 50° C (no chaperone: 888,803,840)", "setting": "Human γD crystallin [3]", "result": "6.61e+08"}
    ]},
    {"binder": "DQFFGEHL (pin-immobilised 8-mer of human αB crystallin; also called peptide 13)", "values": [
      {"measurement": "binding result", "setting": "Human γD crystallin [1]", "result": "binds"}
    ]},
    {"binder": "STSLSPFYLRPPSFLRAP", "values": [
      {"measurement": "Δfluorescence (Aβ), Thioflavin T, 72 h at 50° C (no chaperone: 1,324,974,048)", "setting": "beta amyloid", "result": "4.78e+08"},
      {"measurement": "Δfluorescence (γD crystallin), Thioflavin T, 72 h at 50° C (no chaperone: 888,803,840)", "setting": "Human γD crystallin [3]", "result": "6.06e+08"}
    ]},
    {"binder": "RQDE", "values": [
      {"measurement": "β2m fibrillation, ThT fluorescence, 1:1 peptide:β2m (29 µM)", "setting": "β2-microglobulin", "result": "~100", "unit": "% inhibition"}
    ]},
    {"binder": "SFLRAPSW (pin-immobilised 8-mer of human αB crystallin)", "values": [
      {"measurement": "binding result", "setting": "Human γD crystallin [1]", "result": "binds"}
    ]},
    {"binder": "EERQ", "values": [
      {"measurement": "β2m fibrillation, ThT fluorescence, 1:1 peptide:β2m (29 µM)", "setting": "β2-microglobulin", "result": "~100", "unit": "% inhibition"}
    ]},
    {"binder": "LTITSSLSSDGV", "values": [
      {"measurement": "Δfluorescence (Aβ), Thioflavin T, 72 h at 50° C (no chaperone: 1,324,974,048)", "setting": "beta amyloid", "result": "3.52e+08"},
      {"measurement": "Δfluorescence (γD crystallin), Thioflavin T, 72 h at 50° C (no chaperone: 888,803,840)", "setting": "Human γD crystallin [3]", "result": "6.75e+08"}
    ]},
    {"binder": "EERQDE", "values": [
      {"measurement": "TTR fibrillation, ThT fluorescence, 1:1 peptide:TTR (16 µM)", "setting": "transthyretin", "result": "~100", "unit": "% inhibition"},
      {"measurement": "β2m fibrillation, ThT fluorescence, 1:1 peptide:β2m (29 µM)", "setting": "β2-microglobulin", "result": "~100", "unit": "% inhibition"}
    ]},
    {"binder": "LTITSSLS (also: covalently bound to polyethylene pin, pin-immobilised 8-mer of human αB crystallin; also called β8)", "values": [
      {"measurement": "binding result", "setting": "Human γD crystallin [1]", "result": "binds"},
      {"measurement": "binding result", "setting": "Porcine Citrate synthase [4]", "result": "binds"}
    ]},
    {"binder": "PFFPFHSP (pin-immobilised 8-mer of human αB crystallin; also called 13 PFFPFHSP20)", "values": [
      {"measurement": "binding result", "setting": "Human γD crystallin [1]", "result": "binds"}
    ]},
    {"binder": "FISREFHR (pin-immobilised 8-mer of human αB crystallin; also called peptide 57)", "values": [
      {"measurement": "binding result", "setting": "Porcine Citrate synthase [4]", "result": "binds"}
    ]},
    {"binder": "FSVNLDVK (also: covalently bound to polyethylene pin, pin-immobilised 8-mer of human αB crystallin; also called β3)", "values": [
      {"measurement": "binding result", "setting": "Human γD crystallin [1]", "result": "binds"},
      {"measurement": "binding result", "setting": "Porcine Citrate synthase [4]", "result": "binds"}
    ]},
    {"binder": "SLSPFYLR (pin-immobilised 8-mer of human αB crystallin; also called peptide 22)", "values": [
      {"measurement": "binding result", "setting": "Human γD crystallin [1]", "result": "binds"},
      {"measurement": "binding result", "setting": "Porcine Citrate synthase [4]", "result": "binds"}
    ]},
    {"binder": "HGFISREF (pin-immobilised 8-mer of human αB crystallin; also called peptide 56)", "values": [
      {"measurement": "binding result", "setting": "Human γD crystallin [1]", "result": "binds"}
    ]},
    {"binder": "HGKHEERQDE", "values": [
      {"measurement": "pH induced aggregation of amyloid-beta at pH 5.2, light scattering 360 nm (amyloid-beta alone = 100%)", "setting": "Amyloid-beta (1-42)", "result": 30, "unit": "% aggregation"},
      {"measurement": "Δfluorescence (Aβ), Thioflavin T, 72 h at 50° C (no chaperone: 1,324,974,048)", "setting": "beta amyloid", "result": "7.96e+08"},
      {"measurement": "Δfluorescence (γD crystallin), Thioflavin T, 72 h at 50° C (no chaperone: 888,803,840)", "setting": "Human γD crystallin [3]", "result": "7.34e+08"}
    ]},
    {"binder": "LTITSSLSDGV", "values": [
      {"measurement": "protection against thermal aggregation at 50° C, light scattering 340 nm, 50:1 peptide:target", "setting": "Bovine βH crystallin", "result": "~30", "unit": "% protection"},
      {"measurement": "protection against thermal aggregation at 50° C, light scattering 340 nm, 50:1 peptide:target", "setting": "[2]", "result": "~30", "unit": "% protection"},
      {"measurement": "pH induced aggregation of amyloid-beta at pH 5.2, light scattering 360 nm (amyloid-beta alone = 100%)", "setting": "Amyloid-beta (1-42)", "result": 15, "unit": "% aggregation"}
    ]},
    {"binder": "LTVNGPRK (pin-immobilised 8-mer of human αB crystallin; also called peptide 72)", "values": [
      {"measurement": "binding result", "setting": "Porcine Citrate synthase [4]", "result": "binds"}
    ]},
    {"binder": "ERTIPITRE", "values": [
      {"measurement": "Δfluorescence (Aβ), Thioflavin T, 72 h at 50° C (no chaperone: 1,324,974,048)", "setting": "beta amyloid", "result": "5.77e+08"},
      {"measurement": "Δfluorescence (γD crystallin), Thioflavin T, 72 h at 50° C (no chaperone: 888,803,840)", "setting": "Human γD crystallin [3]", "result": "6.11e+08"}
    ]},
    {"binder": "IAIHHPWI (pin-immobilised 8-mer of human αB crystallin; also called peptide 2)", "values": [
      {"measurement": "binding result", "setting": "Human γD crystallin [1]", "result": "binds"}
    ]},
    {"binder": "HGKHEERQ", "values": [
      {"measurement": "TTR fibrillation, ThT fluorescence, 1:1 peptide:TTR (16 µM)", "setting": "transthyretin", "result": "~100", "unit": "% inhibition"}
    ]},
    {"binder": "WIRRPFFP (pin-immobilised 8-mer of human αB crystallin; also called peptide 5)", "values": [
      {"measurement": "binding result", "setting": "Human γD crystallin [1]", "result": "binds"},
      {"measurement": "binding result", "setting": "Porcine Citrate synthase [4]", "result": "binds"}
    ]},
    {"binder": "GVLTVNGP (also: covalently bound to polyethylene pin, pin-immobilised 8-mer of human αB crystallin; also called β9)", "values": [
      {"measurement": "binding result", "setting": "Porcine Citrate synthase [5]", "result": "binds"},
      {"measurement": "binding result", "setting": "Human γD crystallin [1]", "result": "binds"}
    ]},
    {"binder": "FYLRPPSF (pin-immobilised 8-mer of human αB crystallin; also called peptide 24)", "values": [
      {"measurement": "binding result", "setting": "Human γD crystallin [1]", "result": "binds"},
      {"measurement": "binding result", "setting": "Porcine Citrate synthase [4]", "result": "binds"}
    ]},
    {"binder": "HEER", "values": [
      {"measurement": "TTR fibrillation, ThT fluorescence, 1:1 peptide:TTR (16 µM)", "setting": "transthyretin", "result": "~100", "unit": "% inhibition"}
    ]},
    {"binder": "FPFHSPSR (pin-immobilised 8-mer of human αB crystallin; also called peptide 8)", "values": [
      {"measurement": "binding result", "setting": "Porcine Citrate synthase [4]", "result": "binds"}
    ]},
    {"binder": "LRAPSWFD (pin-immobilised 8-mer of human αB crystallin; also called peptide 28)", "values": [
      {"measurement": "binding result", "setting": "Porcine Citrate synthase [4]", "result": "binds"}
    ]},
    {"binder": "RTIPITRE (pin-immobilised 8-mer of human αB crystallin; also called peptide 79)", "values": [
      {"measurement": "binding result", "setting": "Porcine Citrate synthase [4]", "result": "binds"}
    ]}
  ]
}
